Laboratory results from patent US20090214583A1 (GOVERNMENT OF THE UNITED STATES OF AMERICA AS REPRESENTED …, published 2009).

Biological target: HLA-DRβ1*13 (human)
Assay: cell-based or functional assay

KQIINMWQEIGKAMYA [Peptide 53]
proliferation of KT9 cells: ≤ 2 fold
